Reference: US20040248240A1
Where two headings read alike, the source gives them in different places.

Columns and labels:
Assay in all cases: cell-based or functional assay
[1] = target: rat brain type IIA α sub-unit of the voltage-gated sodium channel (rat) (UniProt P04775)
[2] = target: rat brain type IIA α sub-unit of the voltage-gated sodium channel (rat) (UniProt P04775); remark: listed apart in the source
[3] = target: rat brain type IIA α sub-unit of the voltage-gated sodium channel (rat) (UniProt P04775); remark: listed apart in the source

Chain of UniProt P04775 (P04775 whole entry): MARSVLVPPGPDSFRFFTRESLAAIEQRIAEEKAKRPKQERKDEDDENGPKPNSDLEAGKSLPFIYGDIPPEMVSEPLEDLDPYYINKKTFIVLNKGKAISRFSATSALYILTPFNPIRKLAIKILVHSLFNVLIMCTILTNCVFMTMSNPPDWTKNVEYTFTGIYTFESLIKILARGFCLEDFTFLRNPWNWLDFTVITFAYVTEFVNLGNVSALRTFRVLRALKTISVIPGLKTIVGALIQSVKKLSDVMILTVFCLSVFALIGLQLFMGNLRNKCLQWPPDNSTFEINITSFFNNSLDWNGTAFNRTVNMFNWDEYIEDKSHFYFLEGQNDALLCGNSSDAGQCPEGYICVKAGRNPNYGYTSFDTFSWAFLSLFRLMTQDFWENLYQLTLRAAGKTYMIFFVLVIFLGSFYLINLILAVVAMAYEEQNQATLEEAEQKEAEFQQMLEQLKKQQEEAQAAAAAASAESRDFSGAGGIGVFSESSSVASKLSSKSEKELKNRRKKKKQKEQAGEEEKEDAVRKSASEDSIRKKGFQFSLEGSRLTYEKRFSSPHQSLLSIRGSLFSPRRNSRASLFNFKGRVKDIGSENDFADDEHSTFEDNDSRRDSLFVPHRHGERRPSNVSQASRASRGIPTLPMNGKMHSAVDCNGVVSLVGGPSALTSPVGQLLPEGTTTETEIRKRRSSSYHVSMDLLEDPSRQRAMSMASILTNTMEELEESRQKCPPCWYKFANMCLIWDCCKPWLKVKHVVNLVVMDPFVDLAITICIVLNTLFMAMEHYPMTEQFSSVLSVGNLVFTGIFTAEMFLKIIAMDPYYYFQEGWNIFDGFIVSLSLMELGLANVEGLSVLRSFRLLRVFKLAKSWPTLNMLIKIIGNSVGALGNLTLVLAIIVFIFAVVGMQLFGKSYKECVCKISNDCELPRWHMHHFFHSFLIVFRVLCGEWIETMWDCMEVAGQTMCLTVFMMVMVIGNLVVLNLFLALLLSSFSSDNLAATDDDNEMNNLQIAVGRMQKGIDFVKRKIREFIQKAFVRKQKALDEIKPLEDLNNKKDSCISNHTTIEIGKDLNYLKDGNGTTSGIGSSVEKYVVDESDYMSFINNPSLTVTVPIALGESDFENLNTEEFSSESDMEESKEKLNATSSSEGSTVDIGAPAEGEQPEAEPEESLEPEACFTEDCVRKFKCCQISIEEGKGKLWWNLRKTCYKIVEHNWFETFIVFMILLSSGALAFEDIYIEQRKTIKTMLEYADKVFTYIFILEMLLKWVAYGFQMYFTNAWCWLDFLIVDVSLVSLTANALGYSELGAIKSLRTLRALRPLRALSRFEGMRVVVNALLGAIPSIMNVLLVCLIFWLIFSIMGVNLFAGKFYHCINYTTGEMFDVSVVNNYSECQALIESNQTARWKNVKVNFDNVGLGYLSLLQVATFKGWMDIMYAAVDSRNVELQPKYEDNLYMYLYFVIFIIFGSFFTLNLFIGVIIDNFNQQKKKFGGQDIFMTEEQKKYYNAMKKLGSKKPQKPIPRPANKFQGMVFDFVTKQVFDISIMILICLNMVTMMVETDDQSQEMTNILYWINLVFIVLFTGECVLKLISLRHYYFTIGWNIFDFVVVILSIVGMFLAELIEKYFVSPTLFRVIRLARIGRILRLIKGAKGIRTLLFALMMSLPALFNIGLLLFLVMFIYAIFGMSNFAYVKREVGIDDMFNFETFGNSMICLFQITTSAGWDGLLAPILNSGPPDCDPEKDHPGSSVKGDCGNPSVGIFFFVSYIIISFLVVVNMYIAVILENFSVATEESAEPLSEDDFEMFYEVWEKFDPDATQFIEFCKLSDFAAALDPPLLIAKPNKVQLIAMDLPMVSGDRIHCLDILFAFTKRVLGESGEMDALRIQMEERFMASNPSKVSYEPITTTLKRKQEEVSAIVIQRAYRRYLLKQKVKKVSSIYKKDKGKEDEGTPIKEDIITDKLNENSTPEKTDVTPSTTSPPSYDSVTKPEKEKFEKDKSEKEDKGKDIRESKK

## rat voltage-gated sodium channel β1 sub-unit (from UniProt Q00954 19-218)
[1]
  Inactivation timecourse, Percentage in fast mode: 95%
  Inactivation timecourse, time constant 1: 1.4 ms
  Inactivation timecourse, time constant 2: 24.7 ms
  Recovery from inactivation, Percentage in fast mode: 84%
  Recovery from inactivation, time constant 1: 2 ms
  Recovery from inactivation, time constant 2: 148 ms
  Voltage-dependence of inactivation, V½ (mV): -49.1 mV
  Voltage-dependence of inactivation, k (mV): 5.9 mV
  inactivation time constant 1 at -10 mV (two-electrode voltage clamp, oocytes): 1.3 ms
  inactivation time constant 2 at -10 mV (two-electrode voltage clamp, oocytes): 22.7 ms

B1: human voltage-gated sodium channel β3 sub-unit (protein)
chain: FPVCVEVPSETEAVQGNPMKLRCISCMKREEVEATTVVEWFYRPEGGKDFLIYEYRNGHQEVESPFQGRLQWNGSKDLQDVSITVLNVTLNDSGLYTCNVSREFEFEAHRPFVKTTRLIPLRVTEEAGEDFTSVVSEIMMYILLVFLTLWLLIEMIYCYRKVSKAEEAAQENASDYLAIPSENKENSAVPVEE
[2]
  inactivation time constant 1: 1 ms
  inactivation time constant 2: 9.1 ms

B2: rat voltage-gated sodium channel β3 sub-unit (protein)
chain: VCVEVPSETEAVQGNPMKLRCISCMKREEVEATTVVEWFYRPEGGKDFLIYEYRNGHQEVESPFQGRLQWNGSKDLQDVSITVLNVTLNDSGLYTCNVSREFEFEAHRPFVKTTRLIPLRVTEEAGEDFTSVVSEIMMYILLVFLTLWLFIEMIYCYRKVSKAEEAAQENASDYLAIPSENKENSVVPVEE
[2]
  Inactivation timecourse, Percentage in fast mode: 85%
  Inactivation timecourse, time constant 1: 1.5 ms
  Inactivation timecourse, time constant 2: 24.7 ms
  Recovery from inactivation, Percentage in fast mode: 73%
  Recovery from inactivation, time constant 1: 4.1 ms
  Recovery from inactivation, time constant 2: 170 ms
  Voltage-dependence of inactivation, V½ (mV): -49.3 mV
  Voltage-dependence of inactivation, k (mV): 6.1 mV
  inactivation time constant 1 at -10 mV (two-electrode voltage clamp, oocytes): 1 ms
  inactivation time constant 2 at -10 mV (two-electrode voltage clamp, oocytes): 23.8 ms
  steady-state inactivation, V1/2 (midpoint): -49.4 mV
[3]
  Recovery from inactivation, time constant 1: 1.9 ms
  Recovery from inactivation, time constant 2: 198 ms
